Measurements reported in the nanobody polyreactivity screen of Harvey et al. (2022).

Assay: yeast display, Sf9 membrane polyspecificity reagent, FACS + sequencing; frameworks hold sequencing errors
Method in brief: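 Nanobodies from a synthetic yeast display library (Saccharomyces cerevisiae BJ5465), induced 36–48 hours with galactose, were stained 1 hour at 4 °C with 10% biotinylated, detergent-solubilized Sf9 membrane reagent, enriched on streptavidin microbeads, then FACS-sorted. Anti-HA (expression) and streptavidin (reagent binding) fluorescence set low and high (top ~1%) gates. Polyreactivity labels come from the gate of origin. Genes were colony-PCR amplified, MiSeq 2 × 250 sequenced and filtered by CDR length.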

Sequence | polyreactivity (PSR sort gate)
QVQLVESGGGLVQAGGSLRISCAASGFTFNKYAMGWYRQAPGKERELVAALTVSGSRTYYADSVKGRFTISRDNAKNTVYLQMNSLKPEDTAVYYCAARKWYYYLRPWTSVGGYYWGQGTQVTVSS | high polyreactivity
QDQHVESGGGLVQAGGSLRLSCAASGLTFHRYAMGWSRQAPGKERELVAAINYSGGRTYYADSVKGRFTISRDNAKNTVYLLMNSLKPEDTAVYYCAGYDYWGQGTQVTVSS | high polyreactivity
QVQLVESGGGLVQAGGSLRLSCAASGRTYYWYAMGWYRQAPGKERELVAAISSGGSTYYADSVKGRFTISRDNAKNTVSLQMISLKPEDTAVYYCAAYPQAYIADYDYWGQGTQVTVSS | low polyreactivity
QVQLVESGGGLVQAGGSLRLSCAASGYTFGVYVMGWYRQAPGKERELVAAISGSTYYAYSVKGRFTISRDNAKNTVYLQMNSLKPEDTAVYYCAAESYFFSPRTREKFDYWGQGTQVTVSS | low polyreactivity
QVQLVESGGGLVQAGGSLRLSCAASGIIFDFYTMGWYRQAPGKERELVAAINSSGGSTYYADSVKGRFTISRDNAMNTVYLHMNSLKPADTAVYYCNAEYLFFWGQYDYWGQGTQVTVSS | high polyreactivity
QVQLVESGGGLVQAGGSLRLSCAASGSTFYGYAMGWYRQAPGKERELVAAITRSGGSTYYADSVKGRFTISRDNAKNTVYLQMNSLKPEDTEVYYCNKYGYKGGVGYDYWGQGSQVTVSS | high polyreactivity
QVQLVESGGGLVQAGGSLRLSCAASGITFYSYAMGWYRQAPGKERELVAAITRGGSTYYADSVKGRFTISRDNAKNTVYLQMNSLKPEDTAVYYCAASPLGGYGYWGQGTQVTVSS | high polyreactivity
QVQLVESGGGLVQAGGSLRLSCAASGFTFSSYAMGGYRQAPGKERELVAAISSNGRTYYADSVKGRFTISRDNAKNTVYLQMNSQKREDTAVYYCARNIPVSYYRYGYWGQGTQVTVSS | high polyreactivity
QVQHVESGGGLVQAGGSLRLSCAASGFIFDFNAMGRYRPPPGKERELVATISSDGSTNYADSVKGRFTISRDNAKNTVYLQMNSLKPEDTAVYYCNKDSHKDAGTLPGWWYDYWGQGTQVTVSS | low polyreactivity
QEQLVESGGGIVQAGGTLRLSGADSGSIFVKNAMGWYRQAHGKERQWVARITYSGGSTYYADSVKGRFTISRDNAKNTVYLQMNSLKPEDTAVYYCAARYWYFPQPYYPGNDYWGQGTQVTVSS | high polyreactivity
QVQLVESGGGLVQAGGSLRLSCAASGFIFHLYSLGWYRQAPGKERELVAVISGGGSTYYADSVKGRFTISRDNAKNTVYLQMNSLKPEDTAVYYCNVGRYYRYATGGDYWGQGTQVTVSS | high polyreactivity
QVQLVESGGGLVQAGGSLRLSCAASGSTFDPYAMGWYRQAPGKERELVAAITGGGSTNYADSVKGRFTISRDNAKNTVYLQMNSLKPEDTAVYYCAATIPKPYHSGLRLLGQGTQVTVSS | low polyreactivity
QVQLVESGGGLVQAGGSLRLSCAASGFIFRYNAMGWYRQAPGKERELVAAIDSGGSTYYADSVKGRFTISRDNAKNTVYLQMNSLKPEDTAVYYCNAVHEASYAGVDYWGQGTQVTVSS | low polyreactivity
QVQLVESGGGLVQAGGSLRLSCAASGSISVANAMGWYRQAPGKERELVAAITDSGDDTYYADSVKGRFTISRDNAKNTVYLQMNSLKPEDTAVYYCAVEAWSVPPYDYWGQGTIVTVSS | low polyreactivity
QVQLVDSGGGLVQAGGSLRLSCAASGGIFRQNVMGWYRQAPGKERELVAAISRRGGITYYAEAVKGRFTISRDNAKNTVYLQMNSLKPEDTAVYYCNKKPTWDYSYWGQGTQVTVSS | high polyreactivity
QVQLVESGGGLVQAGGSLRLSCAASGSIFAYYTMGWYRQAPGKEREFVAAISYSGGSTYYADSVKGRFTISRDNAKNTVYLQMNSLKPEDTAVYYCFPGKTRLYGYWGQGTQVTVSS | high polyreactivity
QVQLVESGGGLVQAGGSLRLSCAASGSIFEIYAMGWYRQAPGKERELVASITWSGGSTYYADSVKGRFTISRDNAKNTVYLQMNSRKPEDTAVYYCATDKLYGRTVRMDYWGQGTQVTVSS | low polyreactivity
QVQLVESGGGLVQAGGSLRLSCAASGRIFFLNTMGWYRQAPGKERELVAAITRGGSTYYADSVKGRFTISRDNAKNTVYLHMNSLKPEDTAVYYCAADVYGGIGYDYWGQGTQVTVSS | low polyreactivity
QVQLVESGGGLVQAGGSLRLSCAASGSILLWNTMGWYRQAPGKERELVADIRLSASSTYYSDSVKGRITISRDNAKNTVYLQMNSLKPEDTAVSYSAADEYTPDYGQGYDYWGQGTQVTVSS | low polyreactivity
QVQLVESGGGLVQAGGSLRLSCAASGSIFSYYAMGWYRQAPGKERELVAAISQSGGSTYYADSVKGRFTISRDNAKNTVYLQMNSLKPEDTAVYYCNAVARHTRSKYGSWGQGTQVTVSS | high polyreactivity
QVQLVESGGGLVQAGGSLRLSCAASGSIFRSYAMGWYRQAPGKERELVAGISYSGGSTYYADSVKGRFTISRDNAKNTVYLQMNSLKPEDTAVYYCATVSYYDRYDYDYWGQGTQVTVSS | low polyreactivity
QVQLVESGGGLVQAGGSLRLSCAASGNTFYWNAMGWYRQAPGKERELVAAITSSGGSTYYADSVKGRITISRDNAKNTVYLQMNSLKPEDTAVYYCNKDIERYVRIYDSWGQGTQVTVSS | low polyreactivity

Sequence | polyreactivity (PSR sort gate)
QVQLVESGGGLVQAGGSLRLSCAASGFSIAYYAMGWYRQEPGKERELVAAISRRGGSTYYADSVKGRFTISRDNAKNTVYLQMNSLKPEDTAVYYCAKAHYLSDYNYWGQGTQVTVSS | high polyreactivity
QVQLVESGGGLVQAGGSLRLSCAASGITFRRYAMGWYRQAPGKERELVAVISVSGGRTHYADSVKGRFTISRDNAKNTVYLQMNSLKPEDTAVYYCAAQFSYRYYTDEVGYWGQGTQVTVSS | high polyreactivity
QVQLVESGGGLVQAGGSLRLSCAAYGSIFYWYAMGWYRQAPGKERELVAAISSSNDSTDYADSVKGRFTISRDNAKNTVYLQMNSLKPEDTAVYYCAALYGTIQYDYWGQGTQVTVSS | low polyreactivity
QVQLVESGGGLVQAGGSLRLSCAASGITFITYTMGWYRQEPGKERELVAGISSGGSTYYADSVKGRFTISRDNAKNTVYLQMNSLKPEDTAVYYCAAEFAGWGYYWFDYWGQGTQVTVSS | high polyreactivity
QVQLVESGGVLVQAGGSLRLSCAASGSLFSRYAMGWYRQAPGKERELVAAISSSGGSTYYADSVKGRFTISRDNAKNTVYLQMISLKREDTAVYDCGAELRYYLVWLYYWGQGTQVSVSS | low polyreactivity
QVQLVETAGGLVQAGGSLRLSCAASGSTFYTNAMGWYRQAPGKERELVAAISGSGGSTYYADSVKGRFTISRDNAKNTVYLQMISLKPEDTAVYNCAARSRYYDTRFDYWGQGTQVTVSS | low polyreactivity
QVQLVESGGGLVQAGGSLRLSSAASGRIFTYYTMGWSRQAPGKERELVAAISARGGNTYYADSVKGRFTISRDNAKNTVYLQMNSLKPEDTAVYYCAAGWVTSRTYYTHQIRNPLDYWGQGTQVTVSS | high polyreactivity
QVQLLESGGGLVQAGGSLRLSCAASGRTFRINARGWYRQAPGKEREFVAAINYRGGSTYADSVKGRFTISRDNAKNTVYVQMNSLKPEDPAVYYCAAYATLWYYTGVHRGGFENWGQGSQVTVSS | high polyreactivity
QVQLVESGGGLVQAGGSLRLSCAASGRTFFIYAMGWYRQAPGKERELVAAIRWRGGSTYYADSVKGRFTISRDNAKNTVYLQMNSLKPEDTAVYYCAASTRQARYEDYYWGQGTQVTVSS | high polyreactivity
QVQLVESGGGLVQAGGSLRITCAASGSIFTGNAMGWYRQAPGKERELVAAISSSGGSTYYADSVKGRFTLSRDNAKNTVYLQMNSMKPEDTAVYYCAAYNNFLQYDYWGQGTQVTVSS | low polyreactivity
QVQLVESGGGLVQAGGSLRLSCAASGRIFESYAMGWYRQAPGKERELVAAISRSGGSTYYADSVKGRFTISRDNAKNTVYLQMNSLKPEDTAVYYCNTYYYHHYDYWGQGTQVTVSS | high polyreactivity
QVQLVESGGGLVQAGGSLRLSCAASGSIFYENAMGWYRQAPGKERELVAAISRSGGSTYYADSVKGRFTISRDNAKNTVSLQMNSLKPEDTAVYYCAADVYVFIGDYWGQGTQVTVSS | low polyreactivity
QVQLVESGGGLVQAGGSLRLSCAASGSIFNRYAMGWYRQAPGKERELVAAIRSGDNTNYADSVKGRFTISRDNAKNTVYLQMNSLKPEDTAVYYCAKRTYYRSRTVGWGKMDYWGQGTQVTVSS | high polyreactivity
QVQLVESGGGLVQAGGSLRLSCAASGNIFYTYAMGWYRPAPGKERELVAAITWSGGSTYYADSVKGRFTISRDKAKKTVYLQMNSLKPEDTAVYYCAADSLGYYYSGGYYSIYDHWGQGTQVTVSS | high polyreactivity
QVQLVESGGGLVQAGGSLRLSSASSGSTFPGYTMRWYRPAPGKARELVAYITASDSSTYYADSEKGRFTISRDNAKNTVYLQINSLKPEDTAVYYSAKPPRHTWSFVDYRYEYWGQGTQGTVSS | low polyreactivity
QVQLVETGGGLVQAGGSFRLSCAASGGPFDTYVMGWYRQAPGKETELVAVITRGASTYYADSVKGRFTISRDNAKNTVYLQMNSLKPEETAVYYCAASFYSPDYYRFLYSFDYWGQGTQVTVSS | low polyreactivity
QVQLEESGGGLVQAGGSLRLSCAASGRTTYWYAMGWYRQAPGKERELVADISWSGGSTYYADSVKGRFTISRDNAKNTVYLQMNSLKPEDPAVYYCNAAEQKYSIYYAFDTGPYDYWGQGTQVTVSS | low polyreactivity
QVQLVESGGCLVQAGGSLRLSCAASGITFRRYTMGWYRQAPGKERELVATISLSDGNTYYADSVKGRFTISRDNAKNSVYLQMNSLKPEDTAVYYCNADSTTQVYDYWGQGTQVTVSS | low polyreactivity
QVQLVESGGGLVQAGGSLRLSCAASGSIFDVNAMGWYRQAPGKERELVAGISWSGGSTYYADSVKGRFTISRDNAKNTVYLQMNSLKPEDTAVYYCNAEGPIYFYFYRGMDYWGQGTQVTVSS | low polyreactivity
QVQLVESGGGLVQAGGSLRLSCAASGITFKYNAMGWYRQAPGKERELVAAISSGGNTYYADSVKGRFTISRDNAKNTVYLQMNSLKPEDTAVYYCAAPSYDTLWHDYWGQGTQVTVSS | low polyreactivity
QLQLVESGGGLVQAGGSLRLSCAASGRIFDGNTMGWYRQAPGKERELVAAITYSGGRTSYADSVKGRFTISRDNAKNTVYLQMISLKPEDTAVYYCNARVVTGSWYEGYYWGQGTQVTVSS | low polyreactivity
